Data from IntAct's records for PubMed 19033529.

B1: Protein phosphatase 2C 16 (Arabidopsis thaliana (Mouse-ear cress)), Q9CAJ0 (parent)
chain: MEEMTPAVAMTLSLAANTMCESSPVEITQLKNVTDAADLLSDSENQSFCNGGTECTMEDVSELEEVGEQDLLKTLSDTRSGSSNVFDEDDVLSVVEDNSAVISEGLLVVDAGSELSLSNTAMEIDNGRVLATAIIVGESSIEQVPTAEVLIAGVNQDTNTSEVVIRLPDENSNHLVKGRSVYELDCIPLWGTVSIQGNRSEMEDAFAVSPHFLKLPIKMLMGDHEGMSPSLTHLTGHFFGVYDGHGGHKVADYCRDRLHFALAEEIERIKDELCKRNTGEGRQVQWDKVFTSCFLTVDGEIEGKIGRAVVGSSDKVLEAVASETVGSTAVVALVCSSHIVVSNCGDSRAVLFRGKEAMPLSVDHKPDREDEYARIENAGGKVIQWQGARVFGVLAMSRSIGDRYLKPYVIPEPEVTFMPRSREDECLILASDGLWDVMNNQEVCEIARRRILMWHKKNGAPPLAERGKGIDPACQAAADYLSMLALQKGSKDNISIIVIDLKAQRKFKTRT
partner: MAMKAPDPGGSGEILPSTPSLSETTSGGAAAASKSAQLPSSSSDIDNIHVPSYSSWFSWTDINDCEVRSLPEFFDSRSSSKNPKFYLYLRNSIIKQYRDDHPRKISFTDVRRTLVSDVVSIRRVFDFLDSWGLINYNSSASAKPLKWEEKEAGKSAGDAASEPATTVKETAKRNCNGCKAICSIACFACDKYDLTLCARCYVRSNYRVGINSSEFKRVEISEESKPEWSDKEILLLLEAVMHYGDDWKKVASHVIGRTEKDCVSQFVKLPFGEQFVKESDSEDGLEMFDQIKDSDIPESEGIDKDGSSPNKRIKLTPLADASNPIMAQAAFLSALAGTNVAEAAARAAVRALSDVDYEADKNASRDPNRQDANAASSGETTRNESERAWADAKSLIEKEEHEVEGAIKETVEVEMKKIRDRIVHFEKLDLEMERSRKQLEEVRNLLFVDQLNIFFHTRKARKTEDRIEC

Variants of: B1
Settings: with swi3b_arath SWI3B

Row | Variant | effect of a mutation on the interaction
1 | G246D | disrupting interaction
